Laboratory results: patent publication US20190324022, “METHODS AND SYSTEMS FOR IDENTIFYING CANDIDATE NUCLEIC ACID AGENT” (APTITUDE MEDICAL SYSTEMS, INC., published 2019)

Tests used:
[1] = target: T1, HRP-2 (Histidine-Rich Protein 2) (UniProt P05227 P05227:22-332); assay: flow; PBSMCT buffer; 0.124 nM in 10% human serum; settings: tags: His-Tag; Fitzgerald Industries International
T1 sequence: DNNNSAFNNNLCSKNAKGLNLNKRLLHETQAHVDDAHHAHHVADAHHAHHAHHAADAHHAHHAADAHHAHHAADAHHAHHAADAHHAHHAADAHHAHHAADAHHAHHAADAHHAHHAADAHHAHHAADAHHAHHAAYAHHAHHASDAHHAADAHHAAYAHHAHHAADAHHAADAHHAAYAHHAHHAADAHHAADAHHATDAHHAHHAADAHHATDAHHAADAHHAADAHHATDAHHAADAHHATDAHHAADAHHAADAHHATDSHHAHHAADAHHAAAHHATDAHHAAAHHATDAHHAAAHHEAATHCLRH

TNF-alpha [2] = target: T2, TNF-alpha (Homo sapiens, UniProt P01375 P01375:77-233); assay: flow; PBSMCT buffer (2.5 mM MgCl2, 1 mM CaCl2), room temperature, 3 h; 0.27 nM in serum; settings: tags: biotinylated; R&D Systems; chain copies: 3 (inferred)
Method: (§1) MyOne carboxylic acid magnetic particles were coated with amino-modified candidate nucleic acid agents S01, B01, or VR11 (a previously published TNF-α candidate nucleic acid agent), or with mAb11 antibody (a commercial TNF-α antibody). […] The unbound TNF-α was washed away with PBSMCT, after which streptavidin-conjugated Alexa Fluor 488 was introduced and incubated for 15 minutes to label the bound TNF-α. The particles were washed with PBSMCT and median fluorescence intensities were quantified via FACS.
(§2) Sequences and relative affinities of all candidate nucleic acid agents are shown in the methods above.

[3] = target: NGAL (Neutrophil Gelatinase-Associated Lipocalin) (Homo sapiens, UniProt P80188 P80188:21-198); assay: flow; PBSMCT buffer; 1.28 nM in 10% human serum; settings: tags: His-Tag; R&D Systems
TNF-alpha [4] = target: T2, TNF-alpha; assay: flow; PBSMCT buffer, room temperature, 3 h; settings: tags: biotinylated; R&D Systems; chain copies: 3 (inferred)
Method: as §1, §2

T2 sequence (P01375 77-233, one chain of several): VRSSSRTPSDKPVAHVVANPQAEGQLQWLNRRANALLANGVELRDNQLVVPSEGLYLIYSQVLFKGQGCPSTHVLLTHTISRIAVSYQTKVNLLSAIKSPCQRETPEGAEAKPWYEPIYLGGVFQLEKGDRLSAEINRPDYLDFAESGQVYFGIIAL
Chain of NGAL (Neutrophil Gelatinase-Associated Lipocalin) (P80188 21-198, one chain of several): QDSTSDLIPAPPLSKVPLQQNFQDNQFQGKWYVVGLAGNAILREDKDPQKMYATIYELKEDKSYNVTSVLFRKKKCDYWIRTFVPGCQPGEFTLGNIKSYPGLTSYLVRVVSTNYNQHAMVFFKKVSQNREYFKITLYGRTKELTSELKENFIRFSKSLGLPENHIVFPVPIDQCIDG

B1: HRP-2-702 (ssDNA)
DNA: ATCCAGAGTGACGCAGCATTAAATAGGGGTTTGGCTTTGGGTCTGGCATATAGGAACAAGTTTGGACACGGTGGCTTAGT
modifications: immobilized on magnetic particles
B1 showed a Kd [1] of 0.128 nM.

B2: S01 (ssDNA)
DNA: ATCCAGAGTGACGCAGCATGCTTAAGGGGGGGGCGGGTTAAGGGAGTGGGGAGGGAGCTGGTGTGGACACGGTGGCTTAGT
modifications: 5'-amino, coupled to magnetic particles
With B2 the Kd (TNF-alpha [2]) was 0.19 nM.

B3: NGAL-05 (ssDNA)
DNA: GAATTCCGCCCTCGTCCCATCTCGGCTTGGTATGGCGGAGCTGGATAGTATAGTCGGAACACCAACCGAGAACGGAATTC
modifications: immobilized on magnetic particles
Binder B3 has a Kd [3] of 0.92 nM.

B4: B01 (ssDNA)
DNA: ATCCAGAGTGACGCAGCAGGTTAAGGTGTAGGTCCGGGTGGGGGGGTGGGTTGGGGGACTGGTGGACACGGTGGCTTAGT
modifications: 5'-amino, coupled to magnetic particles
Work on B4 yielded a Kd (TNF-alpha [4]) of 0.35 nM.
